Key:
Assay in all cases: pull-down; in vitro translated and purified XPF WT-Myc or R568K-Myc, with or without in vitro methylation by CARM1-FLAG beads (1 mM S-adenosylmethionine, 50 mM Tris-HCl pH 8.0, 10 mM DTT, 3 h at 30°C), then pulled down with GST-ERCC1; western blot
Settings in all cases: both partners purified
[1] = molecular target: T1, in vitro translated XPF R568K-Myc (human, UniProt Q92889 1-916, R568K)
T1 construct: also called RK; source: in vitro translated (wheat germ cell-free system); used as reaction mixture, and purified (Ni-NTA, anti-Myc magnetic beads, Myc peptide elution)
T1 sequence: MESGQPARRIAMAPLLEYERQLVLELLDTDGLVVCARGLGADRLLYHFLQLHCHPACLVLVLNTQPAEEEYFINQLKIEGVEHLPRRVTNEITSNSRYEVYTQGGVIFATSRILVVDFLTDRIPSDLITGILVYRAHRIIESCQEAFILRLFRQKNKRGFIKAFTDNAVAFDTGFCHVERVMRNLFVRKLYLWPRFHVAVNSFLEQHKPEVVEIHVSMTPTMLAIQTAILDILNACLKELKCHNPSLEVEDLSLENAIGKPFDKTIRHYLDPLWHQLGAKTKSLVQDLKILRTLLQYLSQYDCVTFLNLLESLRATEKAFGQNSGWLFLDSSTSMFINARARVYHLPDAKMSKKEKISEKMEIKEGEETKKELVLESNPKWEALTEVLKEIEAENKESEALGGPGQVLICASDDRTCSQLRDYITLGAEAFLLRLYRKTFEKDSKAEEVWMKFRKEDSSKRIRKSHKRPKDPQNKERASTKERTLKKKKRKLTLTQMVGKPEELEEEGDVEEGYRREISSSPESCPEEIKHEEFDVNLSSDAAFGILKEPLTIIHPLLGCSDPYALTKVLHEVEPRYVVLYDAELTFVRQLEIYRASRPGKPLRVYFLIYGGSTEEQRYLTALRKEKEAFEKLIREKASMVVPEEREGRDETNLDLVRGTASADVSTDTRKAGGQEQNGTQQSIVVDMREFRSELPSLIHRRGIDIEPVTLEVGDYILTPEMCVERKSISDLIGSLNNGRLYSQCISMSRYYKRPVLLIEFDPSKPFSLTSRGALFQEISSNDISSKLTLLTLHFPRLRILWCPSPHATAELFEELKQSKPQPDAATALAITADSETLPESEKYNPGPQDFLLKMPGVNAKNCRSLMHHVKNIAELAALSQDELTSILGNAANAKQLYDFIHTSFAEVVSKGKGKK

[2] = molecular target: T2, XPF WT-Myc after CARM1-mediated methylation (human, UniProt Q92889 1-916, arginine methylation by CARM1 in vitro; the paper names R568 as the site whose methylation promotes binding to ERCC1)
T2 construct: XPF (xeroderma pigmentosum group F protein), human; also called methylated XPF WT-Myc
T2 sequence: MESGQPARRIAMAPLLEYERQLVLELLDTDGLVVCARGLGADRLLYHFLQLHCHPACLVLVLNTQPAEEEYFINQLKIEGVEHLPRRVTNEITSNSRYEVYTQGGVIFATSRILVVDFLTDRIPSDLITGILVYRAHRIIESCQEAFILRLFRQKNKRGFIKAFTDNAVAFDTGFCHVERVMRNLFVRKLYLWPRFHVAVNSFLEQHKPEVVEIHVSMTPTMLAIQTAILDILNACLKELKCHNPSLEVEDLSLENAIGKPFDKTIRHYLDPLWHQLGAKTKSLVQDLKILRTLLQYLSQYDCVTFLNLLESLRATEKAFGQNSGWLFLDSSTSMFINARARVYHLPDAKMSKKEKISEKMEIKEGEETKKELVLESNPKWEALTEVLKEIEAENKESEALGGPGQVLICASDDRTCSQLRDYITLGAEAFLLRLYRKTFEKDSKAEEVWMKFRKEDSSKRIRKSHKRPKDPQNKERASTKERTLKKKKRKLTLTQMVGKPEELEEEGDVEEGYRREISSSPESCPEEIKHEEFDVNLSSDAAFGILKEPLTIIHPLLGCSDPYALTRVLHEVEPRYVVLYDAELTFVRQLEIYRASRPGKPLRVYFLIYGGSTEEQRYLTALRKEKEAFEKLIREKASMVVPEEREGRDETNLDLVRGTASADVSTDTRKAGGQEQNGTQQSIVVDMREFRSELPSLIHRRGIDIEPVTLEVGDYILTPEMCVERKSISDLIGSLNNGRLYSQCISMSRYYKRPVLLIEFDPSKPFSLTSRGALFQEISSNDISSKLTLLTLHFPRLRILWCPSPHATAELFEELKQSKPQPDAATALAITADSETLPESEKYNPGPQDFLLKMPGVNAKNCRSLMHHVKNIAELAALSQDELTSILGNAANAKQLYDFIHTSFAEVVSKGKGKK

[3] = molecular target: T3, XPF R568K-Myc after the in vitro methylation assay with CARM1 (human, UniProt Q92889 1-916, R568K, subjected to the in vitro methylation assay with CARM1; methylated residues not stated)
T3 construct: also called R568K-Myc mutant after methylation assay
T3 sequence: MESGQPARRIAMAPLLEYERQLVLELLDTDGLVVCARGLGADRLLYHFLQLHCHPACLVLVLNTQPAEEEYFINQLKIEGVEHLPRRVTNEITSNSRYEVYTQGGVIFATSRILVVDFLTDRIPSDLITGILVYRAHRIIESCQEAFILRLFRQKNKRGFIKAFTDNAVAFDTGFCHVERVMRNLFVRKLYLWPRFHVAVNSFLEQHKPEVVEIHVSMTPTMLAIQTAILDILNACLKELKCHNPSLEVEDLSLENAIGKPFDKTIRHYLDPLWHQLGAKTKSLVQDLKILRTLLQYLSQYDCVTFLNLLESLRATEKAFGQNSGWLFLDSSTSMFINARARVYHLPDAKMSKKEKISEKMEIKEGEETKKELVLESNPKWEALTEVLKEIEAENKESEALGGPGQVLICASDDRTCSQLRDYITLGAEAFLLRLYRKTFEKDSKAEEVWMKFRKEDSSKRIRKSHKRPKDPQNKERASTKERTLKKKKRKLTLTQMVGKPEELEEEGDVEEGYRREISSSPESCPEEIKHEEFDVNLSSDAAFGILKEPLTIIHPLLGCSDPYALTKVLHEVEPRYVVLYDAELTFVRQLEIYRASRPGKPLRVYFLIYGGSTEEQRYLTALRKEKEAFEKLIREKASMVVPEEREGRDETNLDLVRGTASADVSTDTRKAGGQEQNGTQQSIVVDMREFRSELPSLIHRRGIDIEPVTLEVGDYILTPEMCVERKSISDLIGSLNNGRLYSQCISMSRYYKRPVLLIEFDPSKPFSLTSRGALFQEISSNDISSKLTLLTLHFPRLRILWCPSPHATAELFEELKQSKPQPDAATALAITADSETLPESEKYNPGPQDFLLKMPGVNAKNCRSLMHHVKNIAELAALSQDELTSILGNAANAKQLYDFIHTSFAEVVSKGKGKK

[4] = molecular target: T4, in vitro translated XPF WT-Myc (human, UniProt Q92889 1-916)
T4 construct: XPF (xeroderma pigmentosum group F protein), human; source: in vitro translated (wheat germ cell-free system, pEU-E01-MCS); used as reaction mixture, and purified (Ni-NTA, anti-Myc magnetic beads, Myc peptide elution)
T4 sequence: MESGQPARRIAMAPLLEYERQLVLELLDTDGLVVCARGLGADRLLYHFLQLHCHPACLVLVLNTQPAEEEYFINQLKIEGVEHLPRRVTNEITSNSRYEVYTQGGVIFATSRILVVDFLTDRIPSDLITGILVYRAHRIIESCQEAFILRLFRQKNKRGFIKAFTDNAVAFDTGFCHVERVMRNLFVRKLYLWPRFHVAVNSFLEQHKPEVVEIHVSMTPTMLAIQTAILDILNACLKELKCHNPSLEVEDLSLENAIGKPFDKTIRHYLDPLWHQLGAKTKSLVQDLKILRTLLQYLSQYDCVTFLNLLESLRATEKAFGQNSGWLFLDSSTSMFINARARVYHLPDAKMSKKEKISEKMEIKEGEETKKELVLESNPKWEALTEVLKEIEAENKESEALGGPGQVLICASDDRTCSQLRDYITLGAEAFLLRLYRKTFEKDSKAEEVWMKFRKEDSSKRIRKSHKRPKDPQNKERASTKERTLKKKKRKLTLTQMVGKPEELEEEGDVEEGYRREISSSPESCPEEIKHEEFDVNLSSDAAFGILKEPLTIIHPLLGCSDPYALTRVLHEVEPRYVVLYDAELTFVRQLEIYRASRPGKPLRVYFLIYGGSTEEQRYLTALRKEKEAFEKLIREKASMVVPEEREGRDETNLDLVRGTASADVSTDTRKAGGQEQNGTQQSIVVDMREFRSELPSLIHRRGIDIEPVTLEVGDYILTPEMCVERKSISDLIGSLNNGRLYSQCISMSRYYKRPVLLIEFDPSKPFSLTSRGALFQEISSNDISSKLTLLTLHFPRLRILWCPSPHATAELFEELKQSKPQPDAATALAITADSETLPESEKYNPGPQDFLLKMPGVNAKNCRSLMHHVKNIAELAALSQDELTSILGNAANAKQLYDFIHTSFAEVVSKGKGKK

Measured: binding result

B1: GST-ERCC1 (natural protein, human)
chain: MDPGKDKEGVPQPSGPPARKKFVIPLDEDEVPPGVAKPLFRSTQSLPTVDTSAQAAPQTYAEYAISQPLEGAGATCPTGSEPLAGETPNQALKPGAKSNSIIVSPRQRGNPVLKFVRNVPWEFGDVIPDYVLGQSTCALFLSLRYHNLHPDYIHGRLQSLGKNFALRVLLVQVDVKDPQQALKELAKMCILADCTLILAWSPEEAGRYLETYKAYEQKPADLLMEKLEQDFVSRVTECLTTVKSVNKTDSQTLLTTFGSLEQLIAASREDLALCPGLGPQKARRLFDVLHEPFLKVP
notes: ERCC1 (excision repair cross-complementation group 1), human; also called E1; excision repair cross-complementation group 1; source: E. coli BL21 (pGEX 4T-3), purified (glutathione beads)
binds: all assays above
